± gives the uncertainty stated by the source.
Assay: protein stability index of a GFP-peptide fusion (yeast GPS) (PSI 1-4); higher = more stable; sorted into four equal gates, so the index is relative within each strain
Method in brief: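 Tiled 17-residue peptides from yeast proteins were fused downstream of GFP on a plasmid that also expresses Cherry, and the pooled library was carried in yeast. Mid-log cultures grown in leucine-free medium were sorted into four equal gates by GFP/Cherry fluorescence ratio. Plasmids from each gate were PCR-amplified and Illumina-sequenced, and reads were assigned to strains by barcodes. Each peptide's protein stability index is the sum, over gates, of the gate's read frequency multiplied by its gate number.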

Sequence	protein stability index (doa10∆)	protein stability index (pdr5∆)	protein stability index (san1∆)	protein stability index (ubr1∆)
ISEFDSFTDILKSAIRD [RPN12]	2.73 ± 0.12	3.15 ± 0.17	3.04 ± 0.11	2.42 ± 0.13
VLVSSVTEANIIKLVEG [RPS12]	2.52 ± 0.12	2.58 ± 0.067	2.67 ± 0.083	2.71 ± 0.072
PIKEAKIKHGSVTEIPL [YMR129W/POM152]	2.9 ± 0.046	3 ± 0.046	2.6 ± 0.06	2.99 ± 0.05
ENDVKPISIEAPQFYRY [SWI3]	2.55 ± 0.038	2.14 ± 0.039	2.2 ± 0.055	1.95 ± 0.035
DDDVTPSTKVASSAVMN [YLR335W/NUP2]	3.5 ± 0.14	3.19 ± 0.083	3.3 ± 0.065	3.26 ± 0.062
KPETLSIGKNPFNKPNI [SWI3]	2.85 ± 0.044	2.9 ± 0.041	2.75 ± 0.033	2.99 ± 0.03
LNKLYGGAKSRGVRPYK [RPS19A]	3.34 ± 0.14	3.3 ± 0.18	3.09 ± 0.061	–
AKSLLKLQLGQLYESGN [COR1]	2.97 ± 0.12	3.27 ± 0.13	2.99 ± 0.1	3.01 ± 0.087
AALERLKIFEGIPPPYD [RPL16B]	1.62 ± 0.12	2.52 ± 0.089	1.34 ± 0.23	1.27 ± 0.064
RSSEEINSDNQNIILRS [RPN3]	3.03 ± 0.26	3.24 ± 0.19	–	3.2 ± 0.19
TGLSQIPNRRFTLWWSP [PRP8]	3.04 ± 0.058	2.78 ± 0.056	1.87 ± 0.048	2.52 ± 0.042
QVVTDYNILGNLGIPKI [SSN2]	2.51 ± 0.069	2.96 ± 0.072	2.37 ± 0.1	2.27 ± 0.06
DVEIGRMPIMLRSNKCI [RET1]	1.23 ± 0.15	1.27 ± 0.11	1.14 ± 0.27	1.07 ± 0.11
VKVNHNEKRYATASAIA [RPL4A]	2.29 ± 0.1	2.62 ± 0.11	2.1 ± 0.12	2.18 ± 0.067
CQYMVACVPLLPPPEDV [RPN1]	2.03 ± 0.046	2.57 ± 0.073	2.65 ± 0.048	2.76 ± 0.053
DNWNAPLIMATCGSKGS [RPO31]	2.57 ± 0.2	2.4 ± 0.11	–	2.43 ± 0.075
IEIDYTVRVDKASTYGE [SNF12]	1.68 ± 0.08	1.41 ± 0.067	1.53 ± 0.16	1.39 ± 0.04
MPNSSLQPFYSQPTAAG [DSN1]	2.33 ± 0.076	2.71 ± 0.067	2.44 ± 0.056	2.78 ± 0.064
KEHDEIEEQGDALQDVE [DPB4]	3.17 ± 0.092	3.39 ± 0.12	3.36 ± 0.06	3.36 ± 0.067
DIKANGSIQKGMPHKFY [RPL21A]	3.01 ± 0.21	3.07 ± 0.15	3.07 ± 0.28	3.64 ± 0.14
EKERLESLTKEISAAHN [SMC3]	3 ± 0.26	3.22 ± 0.15	2.79 ± 0.13	3.42 ± 0.19
VEQYKFRETTHSKRELD [BRR2]	3.27 ± 0.072	2.96 ± 0.059	2.58 ± 0.054	2.73 ± 0.054
ITISIHGKPTKGSSLAS [SSN8]	2.24 ± 0.17	2.39 ± 0.086	2.43 ± 0.079	2.58 ± 0.041
IIHVLTTMFENTGWSCS [RGR1]	2.16 ± 0.054	2.33 ± 0.077	2.7 ± 0.077	2.73 ± 0.044
ILPDSLNLDSLLVDQKQ [SMD1]	3.29 ± 0.098	3.01 ± 0.085	3.21 ± 0.074	3.09 ± 0.06
TTTLAFRFQGGIIVAVD [PRE2]	3.27 ± 0.096	3.07 ± 0.083	2.81 ± 0.072	3.26 ± 0.09
AIKWDGSSGGVIRMVVL [PRE3]	2.56 ± 0.084	1.92 ± 0.071	2.71 ± 0.1	1.75 ± 0.049
